Laboratory results published in US20230382970A1 (HANMI PHARM, published 2023).
Bridge positions count the residues as written; N and C are the ends. Square brackets hold non-standard residues; d marks the D form. Ends that are not written are not given here. * marks the point of attachment. Desaminotyrosyl = O=C(CCc1ccc(O)cc1)*; Nle = CCCC[C@H](N)C(=O)O; Aib = CC(C)(N)C(=O)O

Columns and labels:
[1] = target: human GLP-1 receptor (human, UniProt P43220 24-463); assay: cell-based or functional assay
[2] = target: T1, human GIP receptor (human, UniProt P48546 22-466); assay: cell-based or functional assay
T1 sequence (looked up): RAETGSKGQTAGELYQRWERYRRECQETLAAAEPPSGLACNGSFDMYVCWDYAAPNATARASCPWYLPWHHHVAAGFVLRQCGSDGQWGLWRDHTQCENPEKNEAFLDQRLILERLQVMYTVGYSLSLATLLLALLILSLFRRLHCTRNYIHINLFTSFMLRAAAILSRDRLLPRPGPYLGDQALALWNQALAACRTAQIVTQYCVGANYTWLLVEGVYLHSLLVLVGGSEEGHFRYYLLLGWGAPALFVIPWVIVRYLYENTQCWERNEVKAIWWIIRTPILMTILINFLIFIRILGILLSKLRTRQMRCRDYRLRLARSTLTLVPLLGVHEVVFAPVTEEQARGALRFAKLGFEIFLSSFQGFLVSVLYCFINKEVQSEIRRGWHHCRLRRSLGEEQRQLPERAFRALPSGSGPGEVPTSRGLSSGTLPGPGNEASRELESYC

Binder	In vitro activity (%) compared to native-type peptide, vs human GLP-1 (cAMP EC50, human GLP-1 receptor-expressing CHO cells) [1]	In vitro activity (%) compared to native-type peptide, vs human GIP (cAMP EC50, human GIP receptor-expressing CHO cells) [2]
[Desaminotyrosyl][Aib]EGTFTSDYSI[Aib]LDAQAA[Aib]AFVQWLIAGGPSSGAPPPSK [GLP-1/GIP dual agonist of SEQ ID NO: 41]	117%	58.7%
Y[Aib]EGTFTSDYSI[Aib]LDKQHA[Aib]AFVQWLIAGGPSSGAPPPSC [GLP-1/GIP dual agonist of SEQ ID NO: 35]	9.6%	64.2%
Y[Aib]EGTFTSDYSIALEKQAA[Aib]DFVNWLLAGGPSSGAPPPSC [GLP-1/GIP dual agonist of SEQ ID NO: 39]	15.9%	144%
[Desaminotyrosyl][Aib]EGTFISDYSIALE[Nle]QAQQDFVNWLLAGGPSSGAPPPSK [GLP-1/GIP dual agonist of SEQ ID NO: 44]	1.4%	74.2%
Y[Aib]EGTFTSDYSI[Aib]LEKQAQQDFVNWLLAGGPSSGAPPPSC [GLP-1/GIP dual agonist of SEQ ID NO: 38]	14.3%	216%
[Desaminotyrosyl][Aib]EGTFTSDYSI[Aib]LD[Nle]QAA[Aib]AFVQWLIAGGPSSGAPPPSK [GLP-1/GIP dual agonist of SEQ ID NO: 42]	69.5%	35.9%
Y[Aib]EGTFTSDYSIALEKQAQRDFVNWLLAGGPSSGAPPPSC [GLP-1/GIP dual agonist of SEQ ID NO: 40]	97.7%	181%
[Desaminotyrosyl][Aib]EGTFISDYSIALEAQAQQDFVNWLLAGGPSSGAPPPSK [GLP-1/GIP dual agonist of SEQ ID NO: 43]	1.2%	109%
Y[Aib]EGTFTSDYSKYLDEIRAKDFVQWLLDHHPSSGQPPPC (bridge 16-20) [GLP-1/GIP dual agonist of SEQ ID NO: 4]	1.9%	18.5%
Y[Aib]EGTFTSDYSI[Aib]LDKQAQQAFVQWLIAGGPSSGAPPPSC [GLP-1/GIP dual agonist of SEQ ID NO: 36]	79.9%	217%
Y[Aib]EGTFTSDYSI[Aib]LDKQAQQ[Aib]FVQWLIAGGPSSGAPPPSC [GLP-1/GIP dual agonist of SEQ ID NO: 37]	45.2%	174%
